# Measured values published in the supplement of paper PMC7877785.
# ± gives the uncertainty stated by the source.
# Assay: self-splicing fitness, log relative to wild type (ln ratio); higher = more splicing; Tetrahymena group I intron in knt gene, E. coli kanamycin selection, DiMSum; sequences stand for … in CUCUCU…GGAGGGAAAAGUUAUCAGGCAUGCACCUGGUAGCUAGUCUUUAAACCAAUAGAUUGCAUCGGUUUAAAAGGCAAGACCGUCAAAUUGCGGGAAAGGGGUCAACAGCCGUUCAGUACCAAGUCUCAGGGGAAACUUUGAGAUGGCCUUGCAAAGGGUAUGGUAAUAAGCUGACGGACAUGGUCCUAACCACGCAGCCAAGUCCUAAGUCAACAGAUCUUCUGUUGAUAUGGAUGCAGUUCACAGACUAAAUGUCGGUCGGGGAAGAUGUAUUCUUCUCAUAAGAUAUAGUCGGACCUCUCCUUAAUGGGAGCUAGCGGAUGAAGUGAUGCAACACUGGAGCCGCUGGGAACUAAUUUGUAUGCGAAAGUAUAUUGAUUAGUUUUGGAGUACUCGUGGUCG
# Outline: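 Fitness was computed with DiMSum as the error-weighted combination of replicate fold changes, kanamycin versus none, each normalised to wild type. The library randomised all eight intron nucleotides of the P1ex region, with the intron placed in the knt kanamycin-resistance gene on pET-22b(+) in E. coli BL21(DE3). Six replicate transformations were grown overnight at 37°C or 30°C on LB agar with or without 25 μg/mL kanamycin, plus 100 μg/mL carbenicillin, 50 μM IPTG and 0.2% rhamnose. Pooled colonies were amplicon-sequenced on an Illumina HiSeq 2500.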
Sequence,self-splicing fitness (ln) (30 °C),self-splicing fitness (ln) (37 °C)
AUUGAGCAAUAUUACGCCCU,-2.51 ± 0.24,-0.951 ± 0.21
AUUGAGCAAUAUUACGCGCA,-1.48 ± 0.16,-1.08 ± 0.2
AUUGAGCAAUAUUACGCUAC,-3.69 ± 0.37,
AUUGAGCAAUAUUACGGAGU,-3.76 ± 0.15,-1.86 ± 0.1
AUUGAGCAAUAUUACGGCCG,-3.13 ± 0.26,-0.636 ± 0.18
AUUGAGCAAUAUUACGGCCU,-3.53 ± 0.21,-0.674 ± 0.11
AUUGAGCAAUAUUACGGCUA,-1.73 ± 0.37,-0.81 ± 0.21
AUUGAGCAAUAUUACGGGAG,-3.67 ± 0.26,-2.33 ± 0.27
AUUGAGCAAUAUUACGGUAG,-3.32 ± 0.24,
AUUGAGCAAUAUUACGUACG,-3.25 ± 0.29,-1.53 ± 0.26
AUUGAGCAAUAUUACGUACU,-2.1 ± 0.28,-2.57 ± 0.49
AUUGAGCAAUAUUACGUAGU,-2.08 ± 0.17,-0.638 ± 0.14
AUUGAGCAAUAUUACGUAUA,-2.67 ± 0.28,-2.98 ± 0.32
AUUGAGCAAUAUUACGUGAG,-2.08 ± 0.11,-1.97 ± 0.14
AUUGAGCAAUAUUACGUGCC,-2.73 ± 0.4,
AUUGAGCAAUAUUACGUGCG,-3.83 ± 0.24,-2.02 ± 0.16
AUUGAGCAAUAUUACGUGGC,-3.45 ± 0.16,-3.69 ± 0.3
AUUGAGCAAUAUUACGUUGA,-3.86 ± 0.37,-3.45 ± 0.3
AUUUAGCAAUAUUACGACGG,-1.79 ± 0.18,-0.641 ± 0.16
AUUUAGCAAUAUUACGACUC,-0.866 ± 0.14,0.207 ± 0.16

Sequence,self-splicing fitness (ln) (30 °C),self-splicing fitness (ln) (37 °C)
AUUUAGCAAUAUUACGACUG,-2 ± 0.17,-1.41 ± 0.16
AUUUAGCAAUAUUACGAGAC,-2.44 ± 0.39,
AUUUAGCAAUAUUACGAGUU,-2.58 ± 0.3,-0.85 ± 0.23
AUUUAGCAAUAUUACGAUGA,-1.8 ± 0.14,-0.68 ± 0.15
AUUUAGCAAUAUUACGCCCC,-0.747 ± 0.37,
AUUUAGCAAUAUUACGCCGU,-1.2 ± 0.2,-1.44 ± 0.22
AUUUAGCAAUAUUACGCUGA,-1.32 ± 0.19,-2.44 ± 0.3
AUUUAGCAAUAUUACGCUUA,-1.99 ± 0.17,-0.321 ± 0.19
AUUUAGCAAUAUUACGCUUG,-0.566 ± 0.088,-0.134 ± 0.12
AUUUAGCAAUAUUACGGAAC,-3.03 ± 0.3,-2.02 ± 0.31
AUUUAGCAAUAUUACGGCGA,-0.579 ± 0.12,0.144 ± 0.11
AUUUAGCAAUAUUACGGCUA,-0.795 ± 0.13,0.255 ± 0.12
AUUUAGCAAUAUUACGUACA,-1.7 ± 0.15,-1.39 ± 0.13
AUUUAGCAAUAUUACGUAGG,-2.98 ± 0.14,-2.02 ± 0.16
AUUUAGCAAUAUUACGUAGU,-1.54 ± 0.079,-0.851 ± 0.1
AUUUAGCAAUAUUACGUAUA,-2.53 ± 0.34,-1.48 ± 0.21
AUUUAGCAAUAUUACGUCGG,-3.82 ± 0.4,-3.18 ± 0.32
AUUUAGCAAUAUUACGUGAG,-1.6 ± 0.083,-0.846 ± 0.13
AUUUAGCAAUAUUACGUUGU,-3.01 ± 0.19,-2.82 ± 0.27
AUUUAGCAAUAUUACGUUUC,-2.86 ± 0.27,-1.91 ± 0.34
